Test results as given in patent US20220033505A1.

Experiments:
[1] = biological target: HLA-A exogenously expressed on cells (K562-HLA-A) (human) (UniProt P04439); test: flow cytometry; IgG1 mAb on cells expressing HLA-A
[2] = biological target: HLA-B exogenously expressed on cells (K562-HLA-B) (human) (UniProt P01889); test: flow cytometry; IgG1 mAb on cells expressing HLA-B
[3] = biological target: HLA-C exogenously expressed on cells (K562-HLA-C) (human) (UniProt P10321); test: flow cytometry; IgG1 mAb on cells expressing HLA-C
Chain of HLA-C exogenously expressed on cells (K562-HLA-C) (human) (P10321 25-366): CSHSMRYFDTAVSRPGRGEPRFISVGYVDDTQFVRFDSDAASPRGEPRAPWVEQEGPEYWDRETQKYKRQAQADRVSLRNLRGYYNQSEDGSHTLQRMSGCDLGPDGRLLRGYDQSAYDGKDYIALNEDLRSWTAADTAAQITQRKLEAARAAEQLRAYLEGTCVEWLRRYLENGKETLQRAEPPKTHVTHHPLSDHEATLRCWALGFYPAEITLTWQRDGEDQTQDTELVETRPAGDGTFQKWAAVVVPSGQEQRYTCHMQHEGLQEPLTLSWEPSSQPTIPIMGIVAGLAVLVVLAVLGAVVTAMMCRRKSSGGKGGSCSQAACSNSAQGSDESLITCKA

Chain of HLA-B exogenously expressed on cells (K562-HLA-B) (human) (P01889 25-362): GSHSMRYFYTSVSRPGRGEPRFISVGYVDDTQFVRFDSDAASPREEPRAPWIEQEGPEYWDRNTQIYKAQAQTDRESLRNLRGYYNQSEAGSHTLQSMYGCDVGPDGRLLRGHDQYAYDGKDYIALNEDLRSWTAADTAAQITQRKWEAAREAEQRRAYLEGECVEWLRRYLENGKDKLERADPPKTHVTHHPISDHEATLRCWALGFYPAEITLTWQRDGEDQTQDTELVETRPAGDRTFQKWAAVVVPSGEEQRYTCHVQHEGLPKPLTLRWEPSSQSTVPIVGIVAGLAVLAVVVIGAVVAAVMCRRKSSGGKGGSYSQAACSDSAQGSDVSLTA

- Geomean fluorescence signal (maximum value for binding) [1]: 2540
- Geomean fluorescence signal (maximum value for binding) [2]: 5790
- Geomean fluorescence signal (maximum value for binding) [3]: 266
B1: MHGB689 (antibody, human IgG1, kappa, V domains shown)
VH: QVQLQQSGPGLVKPSQTLSLTCVISGDSVSSNRAAWNWIRQSPSRGLEWLGRTYYRSKWYNDYAVSVKSRITINSDTSKNQISLQLNSVTPEDTAVYYCARVRPGIPFDYWGQGTTVTVSS
VL: DIQMTQSPDSLAVSLGERATINCESSQSVLFSSNKKNYLAWYQQKPGQPPKLLIYWASTRESGVPDRFSGSGSGTDFTLTINRLQAEDVAVYYCQQYNSTPWTFGQGTKVEIKR
